Biological target: the molecule itself
Assay: SEC-MALS

B1: CpMgm101-NoTag (untagged full-length mature Candida parapsilosis Mgm101) (natural protein, UniProt G8B839 30-266, looked up)
chain: VPKTASAKTTSKLAPSITTEDEVAEQDPSLQEPQSATSTASFAFHDAPPETRSVLNSSTNNNIDWSDSYHGLGSQPFSREIADILLAPIKDQDIEIKPDGLLYLPEIKYRRILNKAFGPGGWGLVPRTESLITKSQISREYGLICHGRLISIARGEQDYFGGEEKVTTALEGCKSNALMRCCKDLGIASELWDPGFIRKWKAKYCEEVFVEHVVNKKKKKLWKLKSNKKIEYPYKQL
- stoichiometry N: 3
